Source: publication PMC6877644

Assays:
[1] = target: JASPer (untagged, in JJ-complex);JIL-1 (Drosophila melanogaster;Drosophila melanogaster) (UniProt Q9V3I5); assay: nucleosome library pull-down with sequencing; details: H3K36me3; DNA EMSA: 50 mM HEPES pH 7.6, 50 mM NaCl, 10% glycerol, 2 mM MgCl2, 10% BSA, RT 10 min; RNA EMSA: 25 mM HEPES pH 7.6, 100 mM KCl, 3 mM MgCl2, 1 mM DTT, 5% …; scale: fold enrichment over unmodified nucleosome
[2] = target: T1, JASPer (Drosophila melanogaster) (UniProt Q9VAA9); assay: nucleosome library pull-down with sequencing; design: dose or concentration left out as unconfirmed; details: H3K36me3; scale: fold enrichment over unmodified nucleosome
T1 sequence: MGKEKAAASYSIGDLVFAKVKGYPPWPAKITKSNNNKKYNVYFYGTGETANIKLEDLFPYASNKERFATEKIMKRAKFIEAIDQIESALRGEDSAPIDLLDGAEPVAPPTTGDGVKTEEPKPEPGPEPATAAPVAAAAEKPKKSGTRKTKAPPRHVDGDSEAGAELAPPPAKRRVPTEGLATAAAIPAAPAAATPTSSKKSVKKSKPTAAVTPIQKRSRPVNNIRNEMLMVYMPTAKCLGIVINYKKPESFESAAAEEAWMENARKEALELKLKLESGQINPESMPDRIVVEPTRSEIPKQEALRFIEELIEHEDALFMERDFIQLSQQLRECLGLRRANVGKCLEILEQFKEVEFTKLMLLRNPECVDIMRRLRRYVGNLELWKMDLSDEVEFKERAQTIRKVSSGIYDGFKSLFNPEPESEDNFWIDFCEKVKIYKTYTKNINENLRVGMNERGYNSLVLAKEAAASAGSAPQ

[3] = target: JASPer-FLAG (D. melanogaster); assay: pull-down; 1.5 pmol FLAG-tagged JASPer or JJ-complex pre-coupled to FLAG-M2 beads, incubated with 1.38 pmol library of 115 DNA-barcoded nucleosome types (12 fmol each) in 200 µL 20 mM Tris/Cl pH 7.5, 50 mM NaCl, 5 mM EDTA, 0.1% TWEEN 20, 4 h at 4 °C; read out by sequencing of the barcodes, relative to the unmodified nucleosome set to 1
[4] = target: JASPer-JIL-1 (JJ)-complex (FLAG-JIL-1 and untagged JASPer) (D. melanogaster) (UniProt Q9V3I5); assay: as above
JASPer-JIL-1 (JJ)-complex (FLAG-JIL-1 and untagged JASPer) (D. melanogaster), sequence (Q9V3I5 whole entry, one chain of several): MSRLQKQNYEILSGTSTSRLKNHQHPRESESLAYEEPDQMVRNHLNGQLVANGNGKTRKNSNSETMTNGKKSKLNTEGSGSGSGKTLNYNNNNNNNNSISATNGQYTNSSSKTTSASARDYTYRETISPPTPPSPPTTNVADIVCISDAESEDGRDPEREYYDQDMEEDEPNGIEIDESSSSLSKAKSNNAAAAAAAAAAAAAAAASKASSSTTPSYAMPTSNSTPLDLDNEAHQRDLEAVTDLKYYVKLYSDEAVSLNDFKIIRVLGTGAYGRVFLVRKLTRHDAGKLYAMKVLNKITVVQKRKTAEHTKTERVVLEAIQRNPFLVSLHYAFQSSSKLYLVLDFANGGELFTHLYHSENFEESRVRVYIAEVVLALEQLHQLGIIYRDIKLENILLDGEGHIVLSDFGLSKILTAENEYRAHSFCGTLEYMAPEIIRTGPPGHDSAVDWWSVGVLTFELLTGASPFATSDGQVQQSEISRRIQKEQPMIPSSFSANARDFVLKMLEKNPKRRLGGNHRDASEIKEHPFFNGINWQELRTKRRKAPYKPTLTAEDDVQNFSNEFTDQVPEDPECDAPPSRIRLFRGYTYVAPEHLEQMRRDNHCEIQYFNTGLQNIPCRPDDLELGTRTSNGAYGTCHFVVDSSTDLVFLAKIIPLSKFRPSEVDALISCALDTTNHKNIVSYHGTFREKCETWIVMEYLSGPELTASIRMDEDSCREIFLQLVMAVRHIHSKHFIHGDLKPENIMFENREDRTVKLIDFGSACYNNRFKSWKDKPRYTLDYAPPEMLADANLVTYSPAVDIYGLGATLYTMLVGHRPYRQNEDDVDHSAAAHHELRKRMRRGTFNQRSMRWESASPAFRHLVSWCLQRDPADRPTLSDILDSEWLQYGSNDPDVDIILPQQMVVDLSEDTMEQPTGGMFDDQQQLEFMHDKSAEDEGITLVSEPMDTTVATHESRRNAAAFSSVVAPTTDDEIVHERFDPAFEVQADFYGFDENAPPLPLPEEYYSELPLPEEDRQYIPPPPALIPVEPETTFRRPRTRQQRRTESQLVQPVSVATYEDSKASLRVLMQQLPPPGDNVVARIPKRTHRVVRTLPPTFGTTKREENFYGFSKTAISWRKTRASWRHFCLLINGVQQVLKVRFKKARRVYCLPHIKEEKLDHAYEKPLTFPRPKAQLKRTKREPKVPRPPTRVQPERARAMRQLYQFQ

JASPer (untagged, in JJ-complex);JIL-1 (Drosophila melanogaster;Drosophila melanogaster), sequence (Q9V3I5 whole entry, looked up, one chain of several): as the sequence (Q9V3I5 whole entry, one chain of several) above

Substance | binding signal [1] | binding signal [2] | fold enrichment relative to the unmodified nucleosome [3] [fold] | fold enrichment over the unmodified nucleosome [4] [fold]
H3K36me3 mononucleosome (barcoded library) | 70 | 40 |  | 
nucleosome bearing the single H3K36me3 modification (complex) |  |  | 40 | 70
